Source: paper PMC5421877, “SOCS3 inhibits the pathological effects of IL-22 in non-melanoma skin tumor-derived keratinocytes” (Oncotarget, 2017)

System: SOCS3 expression in healthy keratinocytes
Test: SOCS3 mRNA and protein induction in healthy keratinocytes
Format: cell-based, human
Protocol: Figure 1 IL-22 induces SOCS3, which limits STAT3 and Erk1/2 activation (A) Keratinocyte cultures (n = 3) were stimulated with IL-22 or not for 10 min and protein lysates were subjected to immunoprecipitation and WB analyses for basal and phospho-IL-22R1, Tyk2 or Jak1. (B) WB of time-course experiments were performed on keratinocyte cultures (n = 3) to evaluate basal STAT3, Erk1/2 and MEK or phosphor-STAT3 (Tyr705 and Ser 727), phosphor-Erk1/2 and phospho-MEK. Anti-β-actin Ab was used to normalize sample loading. (C) SOCS mRNA and protein levels were detected by real-time PCR or WB analyses in cultured keratinocytes prepared from healthy skin (n = 3) left untreated or stimulated with IL-22 for the indicated time periods and normalized with β-actin values. (D) HaCaT cells stably transfected with myc-tagged SOCS1 (n = 4), SOCS2 (n = 2) and SOCS3 (n = 4) genes or control plasmids (mock, n = 3) were left untreated or stimulated with IL-22 for 15 min or 3 h and lysates subjected to WB with anti-phospho STAT3 (Tyr705), -phospho STAT3 (Ser727), -STAT3, -phospho Erk, -Erk, -c-myc and -β-actin Abs, as indicated. (E) Keratinocyte cultures were transiently transfected with siRNA specific for SOCS3 or control siRNA (NC). After 48-h transfection, cells were stimulated with IL-22 or not for the indicated time periods. In RNA interference experiments, data were obtained by three independent experiments, and SOCS3 depletion was assessed by real-time PCR and WB. […] Data are expressed as ratio of densitometric intensity (D. I.) of phosphorylated and unphosphorylated STAT3 and Erk1/2 proteins. p < 0.05 (*) values were considered significant.
Figure 4 SOCS3 and SOCS1 are poorly expressed in the epidermis of NMSC lesions and are not induced in transformed keratinocytes by IL-22 (A) Immunohistochemistry for SOCS3 and SOCS1 (red staining) was performed respectively on frozen or paraffin-embedded sections from biopsies of healthy skin (i), NLS (ii, iii) and LS (iv, v) areas of BCC and SCC, specimens. Psoriatic skin biopsies were also analyzed (vi). Sections were counterstained with Mayer's H&E and were visually evaluated by an pathologist experienced in dermatology. […] (B) Graphs show SOCS3 and SOCS1 mRNA levels which were detected by real-time PCR analysis in cultured SCC (CAL27 and CAL33) and BCC (M77015) skin tumor lines left untreated or stimulated with IL-22 or IFN-γ for 3 h and normalized for β-actin mRNA expression levels. […] SOCS1 was detected by IP using a specific anti-SOCS1 Ab, whereas SOCS3 by WB with an anti-SOCS3 Ab. […] Densitometric intensity (D.I.) of SOCS1 or SOCS3/β-actin was calculated from three independent experiments and numerically expressed as D. I. Ratio. *p < 0.01; **p < 0.05. […] SOCS3 and phospho-Tyr STAT3 levels were detected by WB and normalized to β-actin levels. […]

B1: IL-22: cytokine stimulus, R&D Systems (protein, UniProt Q9GZX6 34-179, looked up)
Interleukin-22: APISSHCRLDKSNFQQPYITNRTFMLAKEASLADNNTDVRLIGEKLFHGVSMSERCYLMKQVLNFTLEEVLFPQSDRFQPYMQEVVPFLARLSNRLSTCHIEGDDLHIQRNVQKLKDTVKKLGESGEIKAIGELDLLFMSLRNACI
IL-22 time course, WB, n = 3
  time of peak SOCS3 protein induction: 3 h
IL-22 time course, real-time PCR, n = 3
  time of peak SOCS3 mRNA induction: 1 h
Healthy keratinocytes, 3 h mRNA, 6 h protein
  SOCS3 mRNA and protein expression: significantly induced mRNA and protein expression of SOCS3 in healthy keratinocytes
